Target: T1, 3XHA-LEC2 (Arabidopsis LEAFY COTYLEDON 2, CDS in PB7HA 35S vector), Q1PFR7
T1 chain: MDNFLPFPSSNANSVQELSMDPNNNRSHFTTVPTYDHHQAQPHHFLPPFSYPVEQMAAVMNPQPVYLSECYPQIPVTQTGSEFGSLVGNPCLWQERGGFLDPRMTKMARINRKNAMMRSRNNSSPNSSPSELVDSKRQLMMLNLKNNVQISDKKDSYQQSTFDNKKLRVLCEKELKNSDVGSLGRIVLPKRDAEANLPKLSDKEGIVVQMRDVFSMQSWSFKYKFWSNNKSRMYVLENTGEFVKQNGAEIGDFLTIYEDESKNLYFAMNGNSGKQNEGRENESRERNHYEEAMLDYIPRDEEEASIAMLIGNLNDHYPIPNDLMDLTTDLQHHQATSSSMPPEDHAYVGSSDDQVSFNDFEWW

B1: 3xFLAG-UPL3 (Arabidopsis UBIQUITIN PROTEIN LIGASE 3, CDS in PW1266 35S vector) (protein)
chain: METRSRKRAEATSAAPSSSSSSPPPPPSASGPTTRSKRARLSSSSSSSLAPTPPSSSTTTRSRSSRSAAAAAPMDTSTDSSGFRRGGRGNRGNNNDNSDKGKEKEHDVRIRERERERDRAREQLNMDAAAAAARSADEDDDNDSEDGNGGFMHPNMSSASSALQGLLRKLGAGLDDLLPSSGIGSASSSHLNGRMKKILSGLRAEGEEGKQVEALTQLCEMLSIGTEDSLSTFSVDSFVPVLVGLLNHESNPDIMLLAARALTHLCDVLPSSCAAVVHYGAVSCLVARLLTIEYMDLAEQSLQALKKISQEHPTACLRAGALMAVLSYLDFFSTGVQRVALSTAANMCKKLPSDASDYVMEAVPLLTNLLQYHDSKVLEYASICLTRIAEAFAPYPEKLDELCNHGLVTQAASLISTSNSGGGQASLSVSTYTGLIRLLSTCASGSPLGFRTLLLLGISSILKDILLGSGVSANASVSPALSRPADQIYEIVNLANELLPPLPEGVISLPTSTNALVKGSCQKKSSPSTSGKQEDILKISPREKLLGDQPELLQQFGLDLLPVLVQIYGSSVNGTIRHKCLSVIGKLMYFSSSEMIQSLIGDTNISSFLAGVLAWKDPQVLVPALQVAEILMEKLPETFSKVFVREGVVHAVDQLVLVGKPSHASPTDKDNDCVPGSARSRRYRRRSSNANSDGNQSEEPKNPASLTIGANHNSLDTPTASFMLRETVSSCAKAFKDKYFPSDGGDVDVGVTDDLLHLKNLCTKLTAGIDDHKVKGKGKSKASGPFLGDFSASKEEYLIGVISEILGEISKGDGVSTFEFIGSGVVAALLNYFSCGYFSKEKISELNLPKLRQEGLRRFKAFLEVALPFDGNEGKVPPMTVLIQKLQNALSSLERFPVVLSHPSRSLSGSARLSSGLSALAHPLKLRLCRASGEKTLRDYSSNIVLIDPLASLAAVEEFLWPRVQRSESALKPAAPIGNTEPGTLPSGAGVSSPSSSTPASTTRRHSSRSRSAINIGDTSKKDPVHEKGTSSSKGKGKGVMKPAQADKGPQTRSNAQKRAVLDKDTQMKPASGDSSSEDEELEISPVDIDDALVIEEDDISDDEDDDNEDVLDDSLPMCTPDKVHDVKLADSVDDDGLATSGRQMNPASGGTSGAAAARASDSIDTGIGNSYGSRGALSFAAAAMAGLGAASGRGIRGSRDLHGRTLNRSSDEPSKLIFTAAGKQLSRHLTIYQAVQRQLMLDEDDDDRFGGSDLVSSDGSRFNDIYTIMYQRPDSQVNRLSVGGASSTTPSKSTKSATTNSSVESQSHRASLLDSILQGELPCDLEKSNSTYNVLALLRVLEGLNQLCPRLRAQTLSDRFAEGKITSLDDLSTTAAKVPLDEFVNSKLTPKLARQIQDALALCSGSLPSWCYQLTRACPFLFPFQTRRQYFYSTAFGLSRALNRLQQQQGADGSGSTNEREMRIGRLQRQKVRVSRNRILDSAAKVMEMYSSQKAVLEVEYFGEVGTGLGPTLEFYTLLSHDLQKASLGMWRSSSGDKVSMQIGRDEIEDGKPSAANRDIVLAPLGLFPRPWPSTADISEGGQFHKVIEYFRLLGRVMAKALQDGRLLDVPLSTAFYKLILGQELDLHDIVLFDAELGKTLQELRVVVARKHYLEGVGGDNSSTISDLCLRGCRIEDLSLEFTLPGYPEYILRSGDEIVDITNLEEYISLVVDATVKRGVTRQIEAFRSGFNQVFDITSLQIFTPSELDYLLCGRRELWEVETLAEHIKFDHGYNAKSPAIINLLEIMGELTADQQRAFCQFVTGAPRLPPGGLAVLNPKLTIVRKHSSTSSAAANGAGASETADDDLPSVMTCANYLKLPPYSTKEIMYKKLLYAINEGQGSFDLS
ubiquitylation of LEC2 (HA immunoprecipitation and immunoblot after co-expression in Nicotiana benthamiana): when co-expressed with 3xFLAG-UPL3, 3XHA-LEC2 ubiquitylation appears enhanced
